Experimental data published in patent publication US20220040297A1 (Chugai, published 2022).
Changes are numbered by the printed parent chain. Names may count otherwise. Each block holds one binder with its values, some of them ahead of it.

Experiments:
CD3ε homodimer protein [1] = molecular target: T1, CD3ε homodimer protein (human, UniProt P07766 23-126, limits assumed); assay: SPR, CD3e immobilized
T1 construct: Whole entry named for the human CD3 epsilon chain
T1 sequence (P07766 23-126 limits assumed): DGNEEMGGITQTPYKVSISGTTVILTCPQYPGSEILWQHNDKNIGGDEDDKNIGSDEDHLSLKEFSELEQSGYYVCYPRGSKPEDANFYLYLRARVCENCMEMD
Procedure: Each one-amino acid altered form constructed, expressed, and purified in the paragraph (6-2) was evaluated using Biacore T200 (GE Healthcare Japan Corp.). An appropriate amount of CD3ε homodimer protein was immobilized onto Sensor chip CM4 (GE Healthcare Japan Corp.) by the amine coupling method. Then, the antibody having an appropriate concentration was injected thereto as an analyte and allowed to interact with the CD3ε homodimer protein on the sensor chip. Then, the sensor chip was regenerated by the injection of 10 mmol/L glycine-HCl (pH 1.5). The assay was conducted at 25° C., and HBS-EP+ (GE Healthcare Japan Corp.) was used as a running buffer. […] Each parameter was calculated using Biacore T200 Evaluation Software (GE Healthcare Japan Corp.).
Specifically, when the amount of the GLS3000-containing antibody bound was defined as X and the amount of the L chain one-amino acid altered form bound was defined as Y, a value of Z (ratio of amounts bound)=Y/X was used.

CD3ε homodimer protein [2] = molecular target: T2, CD3ε homodimer protein (human, UniProt P07766 23-126, limits assumed); assay: SPR (Biacore T200, 25°C); CD3ε homodimer immobilized on CM4, one-arm antibody as analyte
T2 construct: also called human CD3ε homodimer protein; CD3e homodimer
T2 sequence (P07766 23-126 limits assumed): as above

B1: GLS3000 G89W (antibody, IgG1, name in Kabat numbering, V domains shown)
VH: QVQLVESGGGVVQPGRSLRLSCAASGFTFSNAWMHWVRQAPGKGLEWVAQIKAKSNNYATYYAESVKGRFTISRDDSKNSLYLQMNSLKTEDTAVYYCRYVHYGAYYGVDAWGQGTTVTVSS
VL: DIVMTQSPLSLPVTPGEPASISCRSSQSLVHSNRNTYLHWYQQKPGQAPRLLIYKVSNRFSGVPDRFSGSGSGTDFTLKISRVEAEDVGVYYCWQGTQVPYTFGQGTKLEIK
KD ratio to GLS3000 (CD3ε homodimer protein [1]): 2.3

B2: GLS3000 G91S (antibody, IgG1, name in Kabat numbering, V domains shown)
VH: B1 VH
VL: B1 VL with W94G, G96S
KD ratio to GLS3000 (CD3ε homodimer protein [1]): 7210

B7: GLS3000 T92Y (antibody, IgG1, name in Kabat numbering, V domains shown)
VH: B1 VH
VL: B1 VL with W94G, T97Y
KD ratio to GLS3000 (CD3ε homodimer protein [1]): 2.53

B10: GLS3000 H34R (antibody, IgG1, name in Kabat numbering, V domains shown)
VH: B1 VH
VL: B1 VL with H39R, W94G
KD ratio to GLS3000 (CD3ε homodimer protein [1]): 85800

B11: GLS3000 S27eL (antibody, IgG1, name in Kabat numbering, V domains shown)
VH: B1 VH
VL: B1 VL with S32L, W94G
KD ratio to GLS3000 (CD3ε homodimer protein [1]): 1.66

B13: GLS3000 Q90Y (antibody, IgG1, name in Kabat numbering, V domains shown)
VH: B1 VH
VL: B1 VL with W94G, Q95Y
KD ratio to GLS3000 (CD3ε homodimer protein [1]): 36.3

B16: GLS3000 R45Q (antibody, IgG1, name in Kabat numbering, V domains shown)
VH: B1 VH
VL: B1 VL with R50Q, W94G
KD ratio to GLS3000 (CD3ε homodimer protein [1]): 0.98

B17: GLS3000 H34E (antibody, IgG1, name in Kabat numbering, V domains shown)
VH: B1 VH
VL: B1 VL with H39E, W94G
KD ratio to GLS3000 (CD3ε homodimer protein [1]): 5.03

B18: GLS3000 N28D (antibody, IgG1, name in Kabat numbering, V domains shown)
VH: B1 VH
VL: B1 VL with N33D, W94G
KD ratio to GLS3000 (CD3ε homodimer protein [1]): 4460

B19: GLS3000 H34M (antibody, IgG1, name in Kabat numbering, V domains shown)
VH: B1 VH
VL: B1 VL with H39M, W94G
KD ratio to GLS3000 (CD3ε homodimer protein [1]): 3.36

B20: GLS3000 G89Y (antibody, IgG1, name in Kabat numbering, V domains shown)
VH: B1 VH
VL: B1 VL with W94Y
KD ratio to GLS3000 (CD3ε homodimer protein [1]): 1.32

B21: GLS3000 S25E (antibody, IgG1, name in Kabat numbering, V domains shown)
VH: B1 VH
VL: B1 VL with S25E, W94G
KD ratio to GLS3000 (CD3ε homodimer protein [1]): 6.54

B23: NNS6f63 (antibody)
heavy: QVQLVESGGGLVQPGRSLRLSCAASGFTFSNAWMHWVRQAPGKGLEWVAQIKDKSNNYATYYAESVKGRFTISRDDSKNSIYLQMNSLKTEDTAVYYCRYVHYAAGGGGWVYYGVDAWGQGTTVTVSSASTKGPSVFPLAPSSKSTSGGTAALGCLVKDYFPEPVTVSWNSGALTSGVHTFPAVLQSSGLYSLSSVVTVPSSSLGTQTYICNVNHKPSNTKVDKKVEPKSCDKTHTCPPCPAPEAAGGPSVFLFPPKPKDTLMISRTPEVTCVVVDVSHEDPEVKFNWYVDGVEVHNAKTKPREEQYASTYRVVSVLTVLHQDWLNGKEYKCKVSNKALPAPIEKTISKAKGQPREPQVYTLPPSRCELTKNQVSLSCAVKGFYPSDIAVEWESNGQPENNYKTTPPVLDSDGSFFLVSKLTVDKSRWQQGNVFSCSVMHEALHNHYTQKSLSLSPDYKDDDDK
chain: EPKSSDKTHTCPPCPAPELLGGPSVFLFPPKPKDTLMISRTPEVTCVVVDVSHEDPEVKFNWYVDGVEVHNAKTKPREEQYNSTYRVVSVLTVLHQDWLNGKEYKCKVSNKALPAPIEKTISKAKGQPREPQVCTLPPSRDELTKNQVSLWCLVKGFYPSDIAVEWESNGQPENNYKTTPPVLDSDGSFFLYSKLTVDKSRWQQGNVFSCSVMHEALHNRYTQKSLSLSP
light: DIVMTQSPLSLPVTPGEPASISCRSSQSLVHSNRNTYLHWYQQKPGQAPRLLIYKVSNRFSGVPDRFSGSGSGTDFTLKISRVEAEDVGVYYCGQGTQVPYTFGQGTKLEIKRTVAAPSVFIFPPSDEQLKSGTASVVCLLNNFYPREAKVQWKVDNALQSGNSQESVTEQDSKDSTYSLSSTLTLSKADYEKHKVYACEVTHQGLSSPVTKSFNRGEC
notes: one-arm antibody
Kd (CD3ε homodimer protein [2]): 69 nM

B24: NNS6f59 (antibody)
heavy: B23 heavy with G106L, G107L, G108V, G109Q, W110E, V111G
chain: B23 chain
light: B23 light
notes: one-arm antibody
Kd (CD3ε homodimer protein [2]): 200 nM

B25: NNS6f29 (antibody)
heavy: B23 heavy with G106I, G107Y, G108Y, G109P, W110T, V111N
chain: B23 chain
light: B23 light
notes: one-arm antibody
Kd (CD3ε homodimer protein [2]): 90 nM

B26: NNS6f62 (antibody)
heavy: B23 heavy with G106N, G109T, W110R, V111H
chain: B23 chain
light: B23 light
notes: one-arm antibody
Kd (CD3ε homodimer protein [2]): 61 nM

B27: NNS6f64 (antibody)
heavy: B23 heavy with G106L, G107V, G108S, G109L, W110T
chain: B23 chain
light: B23 light
notes: one-arm antibody
Kd (CD3ε homodimer protein [2]): 78 nM

B29: NNS6f71 (antibody)
heavy: B23 heavy with G107W, G108V, G109L, W110G, V111S
chain: B23 chain
light: B23 light
notes: one-arm antibody
Kd (CD3ε homodimer protein [2]): 51 nM

B32: NNS6f27 (antibody)
heavy: B23 heavy with G106V, G107W, G109S, W110V, V111W
chain: B23 chain
light: B23 light
notes: one-arm antibody
Kd (CD3ε homodimer protein [2]): 38 nM

B33: NNS6f56 (antibody)
heavy: B23 heavy with G106R, G107E, G108A, G109T, W110R, V111W
chain: B23 chain
light: B23 light
notes: one-arm antibody
Kd (CD3ε homodimer protein [2]): 21 nM

B36: NNS6f17 (antibody)
heavy: B23 heavy with G106W, G108E, W110V
chain: B23 chain
light: B23 light
notes: one-arm antibody
Kd (CD3ε homodimer protein [2]): 74 nM

B37: NNS6f68 (antibody)
heavy: B23 heavy with G106V, G107E, G108W, W110R, V111W
chain: B23 chain
light: B23 light
notes: one-arm antibody
Kd (CD3ε homodimer protein [2]): 45 nM

Other lines, results leading:

KD ratio to GLS3000 (CD3ε homodimer protein [1]): 1.3
B3: GLS3000 V27cE (antibody, IgG1, name in Kabat numbering, V domains shown)
VH: B1 VH
VL: B1 VL with V30E, W94G

KD ratio to GLS3000 (CD3ε homodimer protein [1]): 0.96
B4: GLS3000 Y96F (antibody, IgG1, name in Kabat numbering, V domains shown)
VH: B1 VH
VL: B1 VL with W94G, Y101F

KD ratio to GLS3000 (CD3ε homodimer protein [1]): 26.8
B5: GLS3000 L27bE (antibody, IgG1, name in Kabat numbering, V domains shown)
VH: B1 VH
VL: B1 VL with L29E, W94G

KD ratio to GLS3000 (CD3ε homodimer protein [1]): 1.84
B6: GLS3000 S27eE (antibody, IgG1, name in Kabat numbering, V domains shown)
VH: B1 VH
VL: B1 VL with S32E, W94G

KD ratio to GLS3000 (CD3ε homodimer protein [1]): 12.7
B8: GLS3000 L33P (antibody, IgG1, name in Kabat numbering, V domains shown)
VH: B1 VH
VL: B1 VL with L38P, W94G

KD ratio to GLS3000 (CD3ε homodimer protein [1]): 1.01
B9: GLS3000 N30Y (antibody, IgG1, name in Kabat numbering, V domains shown)
VH: B1 VH
VL: B1 VL with N35Y, W94G

KD ratio to GLS3000 (CD3ε homodimer protein [1]): 0.86
B12: GLS3000 R45D (antibody, IgG1, name in Kabat numbering, V domains shown)
VH: B1 VH
VL: B1 VL with R50D, W94G

KD ratio to GLS3000 (CD3ε homodimer protein [1]): 1.61
B14: GLS3000 P95E (antibody, IgG1, name in Kabat numbering, V domains shown)
VH: B1 VH
VL: B1 VL with W94G, P100E

KD ratio to GLS3000 (CD3ε homodimer protein [1]): 3.25
B15: GLS3000 R29V (antibody, IgG1, name in Kabat numbering, V domains shown)
VH: B1 VH
VL: B1 VL with R34V, W94G

KD ratio to GLS3000 (CD3ε homodimer protein [1]): 1.01
B22: GLS3000 R45E (antibody, IgG1, name in Kabat numbering, V domains shown)
VH: B1 VH
VL: B1 VL with R50E, W94G

Kd (CD3ε homodimer protein [2]): 44 nM
B28: NNS6f58 (antibody)
heavy: B23 heavy with G106S, G107W, G108Q, G109V, W110S, V111R
chain: B23 chain
light: B23 light
notes: one-arm antibody

Kd (CD3ε homodimer protein [2]): 71 nM
B30: NNS6f50 (antibody)
heavy: B23 heavy with G106L, G107T, W110L, V111G
chain: B23 chain
light: B23 light
notes: one-arm antibody

Kd (CD3ε homodimer protein [2]): 52 nM
B31: NNS6f52 (antibody)
heavy: B23 heavy with G106Y, G107M, G108L, W110L, V111G
chain: B23 chain
light: B23 light
notes: one-arm antibody

Kd (CD3ε homodimer protein [2]): 36 nM
B34: NNS6f67 (antibody)
heavy: B23 heavy with G107L, G108L, G109R, W110A, V111A
chain: B23 chain
light: B23 light
notes: one-arm antibody

Kd (CD3ε homodimer protein [2]): 31 nM
B35: NNS6f55 (antibody)
heavy: B23 heavy with G106A, G108R, G109W, W110L, V111A
chain: B23 chain
light: B23 light
notes: one-arm antibody
